Two molecules from publication PMC3229514, “Both hMutSα and hMutSß DNA Mismatch Repair Complexes Participate in 5-Fluorouracil Cytotoxicity” can be followed below.

The target in one series is hMutSβ (hMSH2-hMSH3) (human, UniProt P43246;P20585 1-934;1-1137). The series can be described thus: SPR (IAsys); 10 mM Mg2+; EMSA: 100 nM hMutSβ, 20 mM HEPES pH 7.6, 1 mM EDTA, 1 mM DTT, 10% glycerol, 100 µg poly(dI-dC), 10 µl; IAsys: 100 nM protein, 25 mM Tris-Cl pH 7.8, 20 mM NaCl. Particulars: protein: recombinant, copies: 1;1, label: 5'-32P on S5 (EMSA), 5'-biotin on S5 (IAsys).

For the next series, the target named is hMutSα (human, UniProt P43246;P52701 1-934;1-1360). The description is as above. To be noted: protein: recombinant; copies: 1;1; label: 5'-32P on S5 (EMSA); 5'-biotin on S5 (IAsys); blunt; 5FdU opposite A by the printed complement.

B1: 5-FU-containing 38-mer duplex (dsDNA)
DNA 1: TTTCTGACTTGGATACCAUCTATCTATCTATAAAATAT
DNA 2: ATATTTTATAGATAGATAGATGGTATCCAAGTCAGAAA
modifications: 5-fluoro-2'-deoxyuridine at position 19 of strand 1 (written U)
For B1, the binding signal in the series with hMutSβ (hMSH2-hMSH3) (blunt, 5FdU opposite A by the printed complement) is about 1.3 fold vs complementary DNA; in the series with hMutSα it was ~2 fold vs hMutSβ on same DNA.

B2: AA insertion/deletion loop duplex (dsDNA)
DNA 1: TTTCTGACTTGGATACCATCTATCTATCTATAAAAAATAT
DNA 2: ATATTTTATAGATAGATAGATGGTATCCAAGTCAGAAA
Consider B2, for which the binding signal in the series with hMutSβ (hMSH2-hMSH3) (blunt ends, 2-nt AA loop in strand 1 (40 nt vs 38 nt)) is about 1.8 fold vs complementary DNA.
